Numbering of substitutions follows the chain as printed.
Assays:
Assay in all cases: pull-down
[1] = molecular target: T1, His-tagged AHL10, non-mutated wild type (Arabidopsis thaliana, UniProt O22812 1-351)
T1 sequence (looked up): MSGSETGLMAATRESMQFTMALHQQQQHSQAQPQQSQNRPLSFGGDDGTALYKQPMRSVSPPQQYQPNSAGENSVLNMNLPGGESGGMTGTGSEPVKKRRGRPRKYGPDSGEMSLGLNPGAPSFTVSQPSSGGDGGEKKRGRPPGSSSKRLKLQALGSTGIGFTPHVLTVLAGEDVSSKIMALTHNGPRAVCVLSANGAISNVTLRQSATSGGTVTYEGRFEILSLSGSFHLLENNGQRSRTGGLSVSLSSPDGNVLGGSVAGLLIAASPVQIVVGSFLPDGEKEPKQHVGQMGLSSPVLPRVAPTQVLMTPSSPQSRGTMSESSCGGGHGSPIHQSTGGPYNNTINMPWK

[2] = molecular target: T2, His-tagged AHL10 S313D (phosphomimic) (Arabidopsis thaliana, UniProt O22812 1-351, S313D)
T2 sequence (looked up): T1 sequence (looked up) with S313D

[3] = molecular target: T3, His-tagged AHL10 S314D (phosphomimic) (Arabidopsis thaliana, UniProt O22812 1-351, S314D)
T3 sequence (looked up): T1 sequence (looked up) with S314D

Measured: binding result

B1: GST-tagged RRP6L1 C-terminal 337 amino acids (domain or fragment, Arabidopsis thaliana, UniProt Q0WVE8 301-637, looked up)
chain: YKRSYDVCMQLYEKELWTRDSYLHVYGVQTGNLNAVQLSIVAGLCEWRDRIARADDESTGYVLPNKTLFDIAKEMPIVVAQLRRLLKSKLPYLERNFDAVISVIRRSMQNAAAFEPVVQSLKDRRPETVVEMNIEPKIEKTDTGASASSLSLEKVCVDDSKKQSSGFGVLPLKRKLESDKTVVEKNIEPKIEKTGTEASASSLSSKKVCVDDSKKQSSGFGVLLSKRKFESDNKVKEEVKVSKSKPDKVIIVVDDDDDDDDDESYEQSTKAADALDRVSETPSKGSPSLTQKPKTCNTEVIVLDDDDDSESREDEDMRRRSEKHRRFMNMKRGFLNI
binds: [1] | [2] | [3]

B2: GST-tagged RRP6L1 N-terminal 300 amino acids (domain or fragment, Arabidopsis thaliana, UniProt Q0WVE8 1-300, looked up)
chain: MRFDDPMDEFKRNRKMEEDSKKVIDVKVAESDKGFAKFGKAEVPFHIPTLTKPQEEYKILVDNANNPFEHVLLEKSEDGLRFIHPLEELSVMDFVDRNLSEMRPVKPLPLEETPFKLVEEVKDLEDLAAALQSVEEFAVDLEHNQYRTFQGLTCLMQISTRTEDYIVDIFKLWDHIGPYLRELFKDPKKKKVIHGADRDIIWLQRDFGIYVCNLFDTGQASRVLKLERNSLEFLLKHYCGVAANKEYQKADWRIRPLPDVMKRYAREDTHYLLYIYDVMRMELHTMAKEDEQSDSPLVEV
binds: [1] | [2] | [3]

Source: paper doi:10.1101/2023.04.17.537135 (bioRxiv, 2023)
